Measured values: PMC9482650, “Quantitative fragmentomics allow affinity mapping of interactomes” (Nature Communications, 2022)

B1: ADAM17, P78536 (peptide)
chain: NRVDSKETEC

molecular target: T1, APBA2_1, Q99767; test: holdup assay; parameters: key: below the threshold = too weak to quantify, mostly under pKd 3.1 to 4; details: plain residues with an end cap or a label only (N-terminal biotin on a linker: ado-ado)
T1 sequence (Q99767 563-664, limits assumed, looked up): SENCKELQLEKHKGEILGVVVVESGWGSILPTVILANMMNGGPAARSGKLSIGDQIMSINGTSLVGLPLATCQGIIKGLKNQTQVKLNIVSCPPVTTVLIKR

| Binder | pKd |
| --- | --- |
| B1 | below the threshold |

molecular target: T2, APBA3_1, O96018; test: holdup assay; parameters: key: below the threshold = too weak to quantify, mostly under pKd 3.1 to 4; details: plain residues with an end cap or a label only (N-terminal biotin on a linker: ado-ado)
T2 sequence (O96018 389-490, limits assumed, looked up): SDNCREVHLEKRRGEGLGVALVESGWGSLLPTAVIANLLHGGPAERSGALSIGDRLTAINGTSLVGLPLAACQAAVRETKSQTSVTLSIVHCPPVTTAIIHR

| Binder | pKd |
| --- | --- |
| B1 | below the threshold |

molecular target: T3, ARHGEF11, O15085; test: holdup assay; parameters: key: below the threshold = too weak to quantify, mostly under pKd 3.1 to 4; details: plain residues with an end cap or a label only (N-terminal biotin on a linker: ado-ado)
T3 sequence (O15085 42-136, limits assumed, looked up): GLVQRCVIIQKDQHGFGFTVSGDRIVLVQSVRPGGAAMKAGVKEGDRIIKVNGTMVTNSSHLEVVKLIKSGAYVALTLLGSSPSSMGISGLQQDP

| Binder | pKd |
| --- | --- |
| B1 | 3.59 |

molecular target: ARHGEF12, Q9NZN5-2; test: holdup assay; parameters: key: below the threshold = too weak to quantify, mostly under pKd 3.1 to 4; details: plain residues with an end cap or a label only (N-terminal biotin on a linker: ado-ado)
Sequence (Q9NZN5 other isoform, or with tags, fused parts or gaps): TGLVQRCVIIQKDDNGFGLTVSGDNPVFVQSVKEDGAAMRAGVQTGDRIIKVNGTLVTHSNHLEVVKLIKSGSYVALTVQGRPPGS

| Binder | pKd |
| --- | --- |
| B1 | 3.95 |

molecular target: T4, CARD11, Q9BXL7; test: holdup assay; parameters: key: below the threshold = too weak to quantify, mostly under pKd 3.1 to 4; details: plain residues with an end cap or a label only (N-terminal biotin on a linker: ado-ado)
T4 sequence (Q9BXL7 662-765, limits assumed, looked up): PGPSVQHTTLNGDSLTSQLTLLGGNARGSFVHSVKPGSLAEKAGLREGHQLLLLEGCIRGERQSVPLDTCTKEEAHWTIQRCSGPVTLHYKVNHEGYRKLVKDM

| Binder | pKd |
| --- | --- |
| B1 | below the threshold |

molecular target: CASK, O14936; test: holdup assay; parameters: key: below the threshold = too weak to quantify, mostly under pKd 3.1 to 4; details: plain residues with an end cap or a label only (N-terminal biotin on a linker: ado-ado)
Sequence (O14936 487-570): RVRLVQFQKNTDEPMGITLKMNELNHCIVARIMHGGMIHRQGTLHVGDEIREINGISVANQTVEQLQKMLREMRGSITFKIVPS

| Binder | pKd |
| --- | --- |
| B1 | below the threshold |

molecular target: DLG5_1, Q8TDM6; test: holdup assay; parameters: key: below the threshold = too weak to quantify, mostly under pKd 3.1 to 4; details: plain residues with an end cap or a label only (N-terminal biotin on a linker: ado-ado)
Sequence (Q8TDM6 617-713): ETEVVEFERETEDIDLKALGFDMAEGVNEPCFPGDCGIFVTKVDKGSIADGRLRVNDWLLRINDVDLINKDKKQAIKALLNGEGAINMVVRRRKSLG

| Binder | pKd |
| --- | --- |
| B1 | below the threshold |

molecular target: T5, DVL3, Q92997; test: holdup assay; parameters: key: below the threshold = too weak to quantify, mostly under pKd 3.1 to 4; details: plain residues with an end cap or a label only (N-terminal biotin on a linker: ado-ado)
T5 sequence (Q92997 244-331, limits assumed, looked up): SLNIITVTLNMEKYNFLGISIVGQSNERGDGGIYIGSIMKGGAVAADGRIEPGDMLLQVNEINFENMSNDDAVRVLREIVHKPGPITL

| Binder | pKd |
| --- | --- |
| B1 | below the threshold |

molecular target: T6, FRMPD1, Q5SYB0; test: holdup assay; parameters: key: below the threshold = too weak to quantify, mostly under pKd 3.1 to 4; details: plain residues with an end cap or a label only (N-terminal biotin on a linker: ado-ado)
T6 sequence (Q5SYB0 52-145, limits assumed, looked up): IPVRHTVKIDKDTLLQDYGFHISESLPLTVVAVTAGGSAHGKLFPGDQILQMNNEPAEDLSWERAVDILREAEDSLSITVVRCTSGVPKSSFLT

| Binder | pKd |
| --- | --- |
| B1 | below the threshold |

molecular target: T7, GRIP1_2, Q9Y3R0; test: holdup assay; parameters: key: below the threshold = too weak to quantify, mostly under pKd 3.1 to 4; details: plain residues with an end cap or a label only (N-terminal biotin on a linker: ado-ado)
T7 sequence (Q9Y3R0 145-248, limits assumed, looked up): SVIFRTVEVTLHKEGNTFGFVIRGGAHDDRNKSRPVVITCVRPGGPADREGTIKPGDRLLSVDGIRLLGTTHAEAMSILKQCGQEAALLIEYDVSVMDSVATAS

| Binder | pKd |
| --- | --- |
| B1 | 3.59 |

molecular target: GRIP2_3, Q9C0E4; test: holdup assay; parameters: key: below the threshold = too weak to quantify, mostly under pKd 3.1 to 4; details: plain residues with an end cap or a label only (N-terminal biotin on a linker: ado-ado)
Sequence (Q9C0E4 238-339): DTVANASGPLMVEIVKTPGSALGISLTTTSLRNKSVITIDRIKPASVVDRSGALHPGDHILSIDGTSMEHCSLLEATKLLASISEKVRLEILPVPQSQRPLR

| Binder | pKd |
| --- | --- |
| B1 | below the threshold |

molecular target: GRIP2_6, Q9C0E4; test: holdup assay; parameters: key: below the threshold = too weak to quantify, mostly under pKd 3.1 to 4; details: plain residues with an end cap or a label only (N-terminal biotin on a linker: ado-ado)
Sequence (Q9C0E4 648-740): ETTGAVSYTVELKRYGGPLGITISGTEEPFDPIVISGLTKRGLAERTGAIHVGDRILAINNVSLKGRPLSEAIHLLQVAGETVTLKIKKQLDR

| Binder | pKd |
| --- | --- |
| B1 | below the threshold |

molecular target: HTRA2, O43464; test: holdup assay; parameters: key: below the threshold = too weak to quantify, mostly under pKd 3.1 to 4; details: plain residues with an end cap or a label only (N-terminal biotin on a linker: ado-ado)
Sequence (O43464 355-458): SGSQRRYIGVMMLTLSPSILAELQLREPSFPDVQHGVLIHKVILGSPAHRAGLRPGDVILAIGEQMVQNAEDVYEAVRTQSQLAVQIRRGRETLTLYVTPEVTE

| Binder | pKd |
| --- | --- |
| B1 | below the threshold |

molecular target: IL16_1, Q14005; test: holdup assay; parameters: key: below the threshold = too weak to quantify, mostly under pKd 3.1 to 4; details: plain residues with an end cap or a label only (N-terminal biotin on a linker: ado-ado)
Sequence (Q14005 210-306): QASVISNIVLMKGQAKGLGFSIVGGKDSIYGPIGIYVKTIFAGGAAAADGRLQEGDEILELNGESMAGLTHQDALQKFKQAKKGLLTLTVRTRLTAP

| Binder | pKd |
| --- | --- |
| B1 | below the threshold |

molecular target: Inadl_6, Q8NI35; test: holdup assay; parameters: key: below the threshold = too weak to quantify, mostly under pKd 3.1 to 4; details: plain residues with an end cap or a label only (N-terminal biotin on a linker: ado-ado)
Sequence (Q8NI35 1058-1167): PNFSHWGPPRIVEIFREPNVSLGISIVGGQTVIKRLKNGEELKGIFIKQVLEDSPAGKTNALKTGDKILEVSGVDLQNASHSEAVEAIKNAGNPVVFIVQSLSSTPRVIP

| Binder | pKd |
| --- | --- |
| B1 | below the threshold |

molecular target: MAGI2_6, Q86UL8; test: holdup assay; parameters: key: below the threshold = too weak to quantify, mostly under pKd 3.1 to 4; details: plain residues with an end cap or a label only (N-terminal biotin on a linker: ado-ado)
Sequence (Q86UL8 1141-1229): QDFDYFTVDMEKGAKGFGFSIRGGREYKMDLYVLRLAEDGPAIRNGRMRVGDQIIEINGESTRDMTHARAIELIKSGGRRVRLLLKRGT

| Binder | pKd |
| --- | --- |
| B1 | 4.06 |

molecular target: T8, MPP6, Q9NZW5; test: holdup assay; parameters: key: below the threshold = too weak to quantify, mostly under pKd 3.1 to 4; details: plain residues with an end cap or a label only (N-terminal biotin on a linker: ado-ado)
T8 sequence (Q9NZW5 125-219, limits assumed, looked up): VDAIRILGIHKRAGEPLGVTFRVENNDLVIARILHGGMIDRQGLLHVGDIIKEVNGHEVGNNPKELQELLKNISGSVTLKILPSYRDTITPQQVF

| Binder | pKd |
| --- | --- |
| B1 | below the threshold |

molecular target: T9, NHERF3_1, Q5T2W1; test: holdup assay; parameters: key: below the threshold = too weak to quantify, mostly under pKd 3.1 to 4; details: plain residues with an end cap or a label only (N-terminal biotin on a linker: ado-ado)
T9 sequence (Q5T2W1 4-100, limits assumed, looked up): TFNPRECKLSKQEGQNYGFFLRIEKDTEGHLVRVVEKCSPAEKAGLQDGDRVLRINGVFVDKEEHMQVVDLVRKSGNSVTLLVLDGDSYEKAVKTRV

| Binder | pKd |
| --- | --- |
| B1 | 3.81 |

molecular target: NHERF4_2, Q86UT5; test: holdup assay; parameters: key: below the threshold = too weak to quantify, mostly under pKd 3.1 to 4; details: plain residues with an end cap or a label only (N-terminal biotin on a linker: ado-ado)
Sequence (Q86UT5 220-308): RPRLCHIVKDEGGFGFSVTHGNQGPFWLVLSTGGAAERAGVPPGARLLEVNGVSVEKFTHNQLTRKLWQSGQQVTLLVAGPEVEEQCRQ

| Binder | pKd |
| --- | --- |
| B1 | below the threshold |

molecular target: NOS1, P29475; test: holdup assay; parameters: key: below the threshold = too weak to quantify, mostly under pKd 3.1 to 4; details: plain residues with an end cap or a label only (N-terminal biotin on a linker: ado-ado)
Sequence (P29475 9-101): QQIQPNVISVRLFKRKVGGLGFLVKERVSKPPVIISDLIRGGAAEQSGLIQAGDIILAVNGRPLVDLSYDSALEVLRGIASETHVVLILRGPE

| Binder | pKd |
| --- | --- |
| B1 | below the threshold |

molecular target: T10, PCLO, Q9Y6V0; test: holdup assay; parameters: key: below the threshold = too weak to quantify, mostly under pKd 3.1 to 4; details: plain residues with an end cap or a label only (N-terminal biotin on a linker: ado-ado)
T10 sequence (Q9Y6V0 4491-4600, limits assumed, looked up): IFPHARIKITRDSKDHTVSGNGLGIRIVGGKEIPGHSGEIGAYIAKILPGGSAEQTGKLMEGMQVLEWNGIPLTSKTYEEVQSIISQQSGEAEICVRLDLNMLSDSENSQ

| Binder | pKd |
| --- | --- |
| B1 | below the threshold |

molecular target: PICK1, Q9NRD5; test: holdup assay; parameters: key: below the threshold = too weak to quantify, mostly under pKd 3.1 to 4; details: plain residues with an end cap or a label only (N-terminal biotin on a linker: ado-ado)
Sequence (Q9NRD5 17-115): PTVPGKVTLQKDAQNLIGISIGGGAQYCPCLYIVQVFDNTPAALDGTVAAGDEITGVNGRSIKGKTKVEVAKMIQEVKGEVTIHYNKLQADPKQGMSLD

| Binder | pKd |
| --- | --- |
| B1 | 4.08 |

molecular target: T11, SNTA1, Q13424; test: holdup assay; parameters: key: below the threshold = too weak to quantify, mostly under pKd 3.1 to 4; details: plain residues with an end cap or a label only (N-terminal biotin on a linker: ado-ado)
T11 sequence (Q13424 82-180, limits assumed, looked up): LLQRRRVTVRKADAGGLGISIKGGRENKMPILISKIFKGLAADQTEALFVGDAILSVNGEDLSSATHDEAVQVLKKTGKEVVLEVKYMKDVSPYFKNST

| Binder | pKd |
| --- | --- |
| B1 | 4.7 |

molecular target: T12, TIAM2, Q8IVF5; test: holdup assay; parameters: key: below the threshold = too weak to quantify, mostly under pKd 3.1 to 4; details: plain residues with an end cap or a label only (N-terminal biotin on a linker: ado-ado)
T12 sequence (Q8IVF5 885-986, limits assumed, looked up): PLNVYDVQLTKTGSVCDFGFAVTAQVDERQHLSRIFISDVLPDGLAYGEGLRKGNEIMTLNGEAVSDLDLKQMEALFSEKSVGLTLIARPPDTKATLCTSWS

| Binder | pKd |
| --- | --- |
| B1 | 3.92 |

molecular target: T13, TJP3_3, O95049; test: holdup assay; parameters: key: below the threshold = too weak to quantify, mostly under pKd 3.1 to 4; details: plain residues with an end cap or a label only (N-terminal biotin on a linker: ado-ado)
T13 sequence (O95049 375-456, limits assumed, looked up): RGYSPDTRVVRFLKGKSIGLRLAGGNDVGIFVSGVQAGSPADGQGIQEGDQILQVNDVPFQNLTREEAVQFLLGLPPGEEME

| Binder | pKd |
| --- | --- |
| B1 | below the threshold |
